The values below come from patent publication US20020142955.

In series [1] the test system is Mcc-Pro-Leu-Gly-Pro-D-Lys(DNP).
In another series the test system is T1, Suc-βAla-Leu-Tyr-Leu-Dox.
T1 sequence: XLYL

Sequence of partially purified HeLa cell trouase (HeLa cell anion exchange fraction pool, F1) (chain, as listed by the source): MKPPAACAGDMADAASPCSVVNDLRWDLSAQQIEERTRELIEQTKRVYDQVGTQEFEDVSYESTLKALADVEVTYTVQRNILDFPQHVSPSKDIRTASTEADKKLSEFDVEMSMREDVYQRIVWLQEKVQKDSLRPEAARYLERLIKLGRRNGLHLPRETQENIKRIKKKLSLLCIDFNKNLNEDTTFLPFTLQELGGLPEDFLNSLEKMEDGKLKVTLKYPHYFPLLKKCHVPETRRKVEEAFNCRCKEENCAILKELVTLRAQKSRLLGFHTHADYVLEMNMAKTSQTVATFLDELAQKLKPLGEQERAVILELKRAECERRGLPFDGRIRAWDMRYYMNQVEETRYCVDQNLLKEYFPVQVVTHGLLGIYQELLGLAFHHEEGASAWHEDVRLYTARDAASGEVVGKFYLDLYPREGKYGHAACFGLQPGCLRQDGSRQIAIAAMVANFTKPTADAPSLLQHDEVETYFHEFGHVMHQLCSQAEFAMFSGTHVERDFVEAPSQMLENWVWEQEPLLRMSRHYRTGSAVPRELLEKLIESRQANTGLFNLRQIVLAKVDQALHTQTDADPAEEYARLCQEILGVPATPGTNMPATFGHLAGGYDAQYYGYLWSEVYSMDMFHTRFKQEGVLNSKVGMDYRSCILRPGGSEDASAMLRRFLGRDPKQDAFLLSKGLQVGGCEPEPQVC

Regarding “partially purified HeLa cell trouase (HeLa cell anion exchange fraction pool, F1)”, the rate of hydrolysis (Table 1, (F1)) in the series with Suc-Leu-Ala-Leu-Dox turned out to be 0.78; with Suc-Ile-NmAla-Leu-Dox it was 0; in the series on Suc-Leu-Ala-Gly-Dox, 0.4; in series [1], 1.5; in the series with Suc-Ile-Ala-Leu-Dox, 0; with Suc-βAla-Leu-Ala-Leu-Dox, 1. In addition, the rate of hydrolysis (Table 1, (F1)) came out at 0 in the series on Suc-Leu-NmAla-Leu-Dox, 0.025 with Suc-βAla-Ile-Ala-Leu-Dox and 0.49 with Suc-Met-Ala-Leu-Dox. Further, the “extent of cleavage (HPLC), fold of that of Suc-βAla-Leu-Ala-Leu-Dnr” value with Suc-Ala-Leu-Ala-Leu-Dnr is “only 0.6 fold that of the P2 β-alanine compound”.

Consider purified Porcine Kidney CD10, for which, in the series on Suc-βAla-Leu-Ala-Leu-Dox, the % hydrolysis/10 hr (% hydrolysis/10 hr) stood at 10.9 and the Fraction hydrolyzed relative to standard is 1. In the series with Suc-βAla-Leu-Tyr-Leu-Dox, this substance came in with a % hydrolysis/10 hr (% hydrolysis/10 hr) of 0 and a Fraction hydrolyzed relative to standard of 0.
